Experimental data as given in publication PMC3447759.

Key:
GAGE12I = experiment: EMSA; conditions: EMSA: 20 mM Tris pH 7.4, 50 mM NaCl, 1 mM DTT, 5 min or as indicated, 20 C, 1 pg/ul DNA. Calf thymus DNA-cellulose pull-downs (P1, P2; undefined DNA, not …)
[1] = molecular target: GAGE12I (Lumier fusion, HEK293) (human); experiment: pull-down; Lumier (luminescence-based mammalian interactome mapping): protein A and Renilla luciferase fusions co-expressed in HEK293, lysed in 20 mM Tris-HCl pH 7.5, 250 mM NaCl, 1% Triton X-100, 10 mM EDTA, 10 mM DTT with Benzonase; protein A fusions isolated on IgG-coated magnetic beads …; luciferase bound/input normalised to a protein A dimer control and given as Z scores; both orientations
GAGE12I (Lumier fusion, HEK293) (human), sequence (A1L429 whole entry, the tested form may be a part): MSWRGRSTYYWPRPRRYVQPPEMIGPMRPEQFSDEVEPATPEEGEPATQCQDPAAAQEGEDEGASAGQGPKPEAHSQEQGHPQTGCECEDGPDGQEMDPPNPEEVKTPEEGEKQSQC

Z score [1] | Substance | K half (GAGE12I) [µM]
– | pUC19 90-bp EcoRI-PvuII fragment | < 7.3
3.4 to 5.3 | full-length GCL (Lumier fusion, HEK293) (from UniProt Q96IK5 1-515) (natural protein) | –
